# Assay results: patent US5681715
# How the values were obtained:
# [1] = molecular target: LipA lipase of Pseudomonas cepacia DSM 3959 produced in E. coli from pAHE2 or pAHE10 (inclusion bodies) (Pseudomonas cepacia DSM 3959) (UniProt P22088)
# [2] = molecular target: LipA lipase of Pseudomonas cepacia DSM 3959 produced in E. coli from pAHE2 or pAHE10 (inclusion bodies) (Pseudomonas cepacia DSM 3959) (UniProt P22088); remark: listed apart in the source
# [3] = molecular target: intracellular prelipase from P. cepacia DSM 3959 (Pseudomonas cepacia DSM 3959) (UniProt P22088)
# [4] = molecular target: mature, extracellular lipase from P. cepacia DSM 3959 (Pseudomonas cepacia DSM 3959) (UniProt P22088)
# [5] = molecular target: mature LipA produced in E. coli without signal peptide (pAHE19, pAHE22) (Pseudomonas cepacia DSM 3959) (UniProt P22088)
# [6] = molecular target: LipD, lipase from P. cepacia DSM 3401 (Pseudomonas cepacia DSM 3401)
# [7] = molecular target: LipD, lipase from P. cepacia DSM 3401 (Pseudomonas cepacia DSM 3401); remark: listed apart in the source
# [8] = molecular target: LipA-LipD hybrid lipase (pAHE16, pAHE23) (Pseudomonas cepacia DSM 3959; Pseudomonas cepacia DSM 3401) (UniProt P22088)
substance,measurement,setting,value
"LimA, Pseudomonas cepacia lipase modulator (chaperone molecule) from P. cepacia DSM 3959 (from UniProt P22089)","No of LU recovered after denaturation and renaturation (pH stat), inclusion bodies undiluted",[1],16 LU
same,"No of lipase units recovered after denaturation and renaturation, inclusion bodies diluted 1:10",[2],7.8 LU
same,LU after renaturation,[3],0 LU
same,LU after renaturation,[4],1.3 LU
same,LU after renaturation,[5],0.75 LU
same,"No of LU recovered (+UREA) and % recovery after denaturation and renaturation, first preparation",[6],0.45 LU
same,"LU after renaturation and % recovery, new preparation",[7],56 LU
same,LU after renaturation,[8],1 LU
